Earlier results as cited in article PMC6767261.

Biological target: Endothelin receptor type B (UniProt P24530)
Experiment: radioligand

Sequence of UniProt P24530 (P24530 27-442): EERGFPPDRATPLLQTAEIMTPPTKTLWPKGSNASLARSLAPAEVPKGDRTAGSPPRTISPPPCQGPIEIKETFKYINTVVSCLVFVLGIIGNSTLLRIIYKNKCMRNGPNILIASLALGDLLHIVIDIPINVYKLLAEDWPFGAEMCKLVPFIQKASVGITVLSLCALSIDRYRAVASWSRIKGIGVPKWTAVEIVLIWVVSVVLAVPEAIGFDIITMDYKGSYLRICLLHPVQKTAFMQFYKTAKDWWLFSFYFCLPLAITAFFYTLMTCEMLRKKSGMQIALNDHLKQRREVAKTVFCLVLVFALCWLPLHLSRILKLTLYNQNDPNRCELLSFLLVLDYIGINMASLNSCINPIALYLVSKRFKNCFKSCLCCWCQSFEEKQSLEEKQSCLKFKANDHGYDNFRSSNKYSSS

| Substance | Kd |
| --- | --- |
| Endothelin-1 ([125I]-ET-1), ciliary epithelium (from UniProt P05305) | 54.5 nM |
| Endothelin-1 ([125I]-ET-1), ciliary muscle (from UniProt P05305) | 142 nM |
